Measurements published in patent US20030235860A1, “Interactions between AR, ER, TR2, and TR4” (priority 1999, published 2003).
One block for each molecule: values may come before it.

Key:
[1] = system: PR; assay: Endogenous PR expression in T47D cells (Northern / Western); format: cell-based, human; conditions: T47D cells; 10 nM E2, 24 h
Protocol: The method was used as previously described, Lee & Chang. (1996) J. Biol. Chem. 271. 10405-10412, with some modifications. Briefly. 5 μg of pCMV-TR2 was transiently transfected into T47D cells and lysed in RIPA buffer (10 mM sodium phosphate, pH 7.0. 150 mM NaCL, 2 mM EDT A. 1% (w/v) Nonidet P-40, 0.1% (w/v) SDS. 1% (w/v) sodium deoxycholate) with freshly adding proteinase inhibitors. The soluble protein was quantified using the Bio-Rad Protein Assay reagent (Bio-Rad Laboratories) and 50 μg soluble proteins were loaded onto SDS/10% PAGE and then transferred to Immobion-P transfer membrane (Millipore). After the blocking reaction overnight, the membrane was incubated with […] anti-PR polyclonal antibody (H-190. Santa Cruz) in PBS(−) containing 0.1% Skim milk for 2 h at room temperature. The membrane was washed and then incubated in 15 μCi 125I] of protein-A (DuPont NEN)/30 ml of PBS(−) containing 0.1% Skim milk for 1 h at room temperature. The western blots were autoradiographed and quantitated by using Phosphorlmager.
RNA isolation and Northern blot analysis were performed as previously described. Young, et al., J. Biol. Chem. 273,20877-20885 (1998).
Next it was determined if TR2 could repress the ER endogenous target gene expression. PR was chosen because it is well studied as an E2-ER target gene in T47D cells. Misrahi et al., Biochem. Biophys. Res. Commun. 143, 740-748 (1987). […] Cells were then used for RNA isolation (Northern blot analysis) and lysate protein extraction (Western blot analysis). For RNA analysis, total RNAs were isolated, and Northern blots were performed using [32P] labeled PR cDNA probes. The membrane was autoradiographed. For Protein Western blot analysis, cells lysates were prepared and PR proteins were visualized by radioimmunoblot. The membrane was autoradiographed to Phosphorimager and was quantitated by ImageQuant software.

[2] = system: cyclin D1; assay: Western blot of cyclin D1 in MCF-7-TR4 cells; format: cell-based; conditions: 10 nM E2, Dox
Protocol: MCF-7-TR4 or MCF-7-pBIG cells were cultured in DMEM containing 10% charcoal dextran-treated FBS for 3 days and then 1×10^6 cells were seeded on 100-mm dishes. […] The lysate protein amount was quantitated by Bradford assay (Bio-Rad, Hercules, Calif.) with bovine serum albumin as a reference standard. One hundred μg protein was loaded and after electrophoresis on 10% SDS-PAGE was transferred onto Immobulin (Milipore, Bedford, Mass.). The membrane was blotted with anti-cyclin D1 rabbit polyclonal Ab (H-295) (Santa Cruz). Alkaline phosphatase conjugated secondary Ab was used.

[3] = system: MCF7-TR2 cells; assay: Cell cycle profile by flow cytometry, MCF7-TR2 cells; format: cell-based; conditions: 3 days, E2, or E2 with doxycycline-induced TR2
Protocol: (A) Growth assays were performed by MTT method as instructed by manufacturer (Sigma). 5×10^3 MCF7-pBIG and MCF7-TR2 cells were seeded in 24-well plates and incubated in RPMI with 10% CD-FCS for 48 h. […] After 3- and 5-day treatment, cells were harvested for MTT assay. Data represents the relative folds of MTT O.D.570 values at day 5 divided by that at day 3. […] Cells were then trypsinized and fixed overnight in 70% Ethanol. After cells were incubated with 1 mg/ml RNase A (Sigma) and propidium iodide (Roche Molecular Biochemicals), the DNA contents of cells were measured by a flow cytometry. (C) Percentage of growth suppression by TR2. MCF7-TR2 cells were seeded at 5×10^3 cells per well in 24-well plates. […] The treatments were changed every two days. The indices of cell growth were determined by MTT assay. The MTT values from cells without doxycycline were set as 100% in each kind of treatment. Values are represented by the percentage of growth suppression from cells with doxycycline to that without doxycycline.

[4] = system: MCF-7-TR4 cells; assay: MCF-7 cells growth assay (cell counting); format: cell-based; conditions: MCF-7-TR4 cells (E2 also in MCF-7-pBIG); 10 nM E2; Dox
Protocol: MCF-7-TR4 and MCF-7-pBIG cells, which were deprived of estrogen by culturing in phenol-free DMEM medium supplement with 10% charcol-stripped FBS for 4 days, were plated at 10^4 cells/well into 24-well plate. […] Cells were trypsinized at the specified time points and counted with a hemocytometer to determine cell density per sample.

[5] = biological target: T1, GST-TR4 fusion protein (human, UniProt P49116 1-596); assay: GST pull-down, GST-TR4 on beads, 35S-labeled RXRα
T1 construct: also called pGEX-3X-TR4
T1 sequence: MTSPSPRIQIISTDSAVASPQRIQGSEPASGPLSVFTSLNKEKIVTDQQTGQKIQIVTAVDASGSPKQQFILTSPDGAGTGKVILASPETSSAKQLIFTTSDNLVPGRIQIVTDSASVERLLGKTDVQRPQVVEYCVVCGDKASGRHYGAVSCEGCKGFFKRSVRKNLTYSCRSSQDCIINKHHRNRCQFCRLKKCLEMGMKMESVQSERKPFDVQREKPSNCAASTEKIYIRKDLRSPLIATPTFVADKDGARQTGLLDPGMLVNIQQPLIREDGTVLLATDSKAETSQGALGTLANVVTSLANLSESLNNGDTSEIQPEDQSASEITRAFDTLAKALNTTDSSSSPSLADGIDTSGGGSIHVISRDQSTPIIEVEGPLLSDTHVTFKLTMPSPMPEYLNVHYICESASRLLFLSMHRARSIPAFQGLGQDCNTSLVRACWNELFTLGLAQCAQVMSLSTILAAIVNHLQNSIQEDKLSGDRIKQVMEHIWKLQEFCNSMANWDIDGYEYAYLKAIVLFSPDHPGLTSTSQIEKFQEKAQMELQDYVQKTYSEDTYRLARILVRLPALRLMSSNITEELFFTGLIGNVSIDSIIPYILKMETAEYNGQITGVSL

[6] = biological target: T2, TR4 orphan receptor (TR4), full-length (human, UniProt P49116 1-596); assay: Table 4, summary of interactions tested; assay not given
T2 construct: Full-length TR4; 35S-labeled when in vitro translated, expressed from plasmids in the cell assays; also called pCMX-TR4; pCMV-TR4
T2 sequence: T1 sequence

[7] = biological target: T3, TR4 LBD (row label of Table 4) (human, UniProt P49116 205-596); assay: as above
T3 construct: not shown: Fusion partner: GST in the pull-down with ER, GAL4-DBD in the hybrid assays with AR
T3 sequence: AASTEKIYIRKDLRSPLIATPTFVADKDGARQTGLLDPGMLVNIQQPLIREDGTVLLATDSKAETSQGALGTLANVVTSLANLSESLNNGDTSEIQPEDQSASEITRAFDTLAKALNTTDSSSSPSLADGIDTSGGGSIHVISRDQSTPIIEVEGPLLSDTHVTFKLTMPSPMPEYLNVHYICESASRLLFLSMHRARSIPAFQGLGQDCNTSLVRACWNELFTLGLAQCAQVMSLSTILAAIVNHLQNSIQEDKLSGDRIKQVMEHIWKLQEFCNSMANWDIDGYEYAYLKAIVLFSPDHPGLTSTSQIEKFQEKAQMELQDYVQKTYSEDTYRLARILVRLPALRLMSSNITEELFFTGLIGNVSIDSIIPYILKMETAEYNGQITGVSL

[8] = biological target: T4, TR2 orphan receptor (full length, 603 aa) (UniProt P13056 SEQ:1-603); assay: EMSA; no TR2-ERE band; conditions: chain copies: 2; label: 32P
T4 chain: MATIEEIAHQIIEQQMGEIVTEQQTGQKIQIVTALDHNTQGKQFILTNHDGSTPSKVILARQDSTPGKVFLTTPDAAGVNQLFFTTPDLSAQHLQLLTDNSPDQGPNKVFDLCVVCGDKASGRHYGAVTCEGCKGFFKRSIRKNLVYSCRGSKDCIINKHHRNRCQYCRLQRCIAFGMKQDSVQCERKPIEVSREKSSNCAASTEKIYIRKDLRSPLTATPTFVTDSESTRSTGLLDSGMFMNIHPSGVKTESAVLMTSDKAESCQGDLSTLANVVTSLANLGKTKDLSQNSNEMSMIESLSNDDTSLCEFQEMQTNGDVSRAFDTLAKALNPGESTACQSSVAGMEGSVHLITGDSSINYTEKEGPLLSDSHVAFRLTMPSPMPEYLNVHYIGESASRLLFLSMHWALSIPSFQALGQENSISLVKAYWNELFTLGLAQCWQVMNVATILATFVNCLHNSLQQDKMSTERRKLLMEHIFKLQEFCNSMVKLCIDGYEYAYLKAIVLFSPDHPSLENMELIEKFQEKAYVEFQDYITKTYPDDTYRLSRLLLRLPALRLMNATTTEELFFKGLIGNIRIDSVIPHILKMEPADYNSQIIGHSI

[9] = biological target: T5, Estrogen receptor alpha (ER) (Homo sapiens, UniProt P03372 SEQ:1-595); assay: EMSA; with or without E2; supershifted by C-314; competed by 100-fold cold ERE; decreased by added TR2; conditions: chain copies: 2; label: 32P
T5 chain: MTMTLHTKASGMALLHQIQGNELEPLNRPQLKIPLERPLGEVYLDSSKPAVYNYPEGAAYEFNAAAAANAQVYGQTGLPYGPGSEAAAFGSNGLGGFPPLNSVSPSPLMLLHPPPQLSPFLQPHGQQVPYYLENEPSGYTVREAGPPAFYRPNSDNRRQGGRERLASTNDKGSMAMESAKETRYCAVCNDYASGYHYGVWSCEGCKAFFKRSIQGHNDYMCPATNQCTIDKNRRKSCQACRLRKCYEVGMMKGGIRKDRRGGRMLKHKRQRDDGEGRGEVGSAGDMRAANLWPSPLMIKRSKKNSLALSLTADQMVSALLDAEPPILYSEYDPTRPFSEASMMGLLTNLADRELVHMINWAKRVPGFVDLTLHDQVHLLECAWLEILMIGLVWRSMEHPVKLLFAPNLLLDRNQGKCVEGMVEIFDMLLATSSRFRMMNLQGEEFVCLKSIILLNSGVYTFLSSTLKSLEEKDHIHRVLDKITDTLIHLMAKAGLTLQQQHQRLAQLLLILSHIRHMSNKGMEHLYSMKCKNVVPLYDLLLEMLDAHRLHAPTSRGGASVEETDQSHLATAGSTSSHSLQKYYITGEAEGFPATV

[10] = biological target: T6, estrogen receptor (ER), full-length (human, UniProt P03372 1-595); assay: GST pull-down, GST-TR2 fragment on beads, [35S]-ER
T6 construct: 35S-labeled when in vitro translated for the pull-downs; endogenous in MCF7 cells for the co-immunoprecipitation; also called ERα; pSG5-ER
T6 sequence: T5 chain

Molecule: C[C@]12CC[C@@H]3c4ccc(O)cc4CC[C@H]3[C@@H]1CC[C@@H]2O [E2, 17β-estradiol, reference compound]
- Induction of PR mRNA expression [1]: about 3 fold
- Cyclin D1 expression [2]: induced cyclin D1 expression
- Cells in G1 [3]: 37.4%
- Cells in S [3]: 23.6%
- Cell growth (cell number) [4]: stimulated cell growth

B3: complement C3 ERE (dsDNA)
DNA 1: AGGTGGCCCTGACCC
DNA 2: GGGTCAGGGCCACCT
- binding result [8]: no binding
- binding result [9]: binds

B4: GST-TR2-#1 (N-terminus, aa 1-112 of TR2) (other)
chain: MATIEEIAHQIIEQQMGEIVTEQQTGQKIQIVTALDHNTQGKQFILTNHDGSTPSKVILARQDSTPGKVFLTTPDAAGVNQLFFTTPDLSAQHLQLLTDNSPDQGPNKVFDL
notes: also called pGEX-KG-TR2-#1; not shown: GST carrier of pGEX-KG and its linker
- binding result [10]: no binding

Next, values leading:

- binding result [5]: no binding
B1: retinoid X receptor alpha (RXRα) (receptor, UniProt P19793 1-462, looked up)
chain: MDTKHFLPLDFSTQVNSSLTSPTGRGSMAAPSLHPSLGPGIGSPGQLHSPISTLSSPINGMGPPFSVISSPMGPHSMSVPTTPTLGFSTGSPQLSSPMNPVSSSEDIKPPLGLNGVLKVPAHPSGNMASFTKHICAICGDRSSGKHYGVYSCEGCKGFFKRTVRKDLTYTCRDNKDCLIDKRQRNRCQYCRYQKCLAMGMKREAVQEERQRGKDRNENEVESTSSANEDMPVERILEAELAVEPKTETYVEANMGLNPSSPNDPVTNICQAADKQLFTLVEWAKRIPHFSELPLDDQVILLRAGWNELLIASFSHRSIAVKDGILLATGLHVHRNSAHSAGVGAIFDRVLTELVSKMRDMQMDKTELGCLRAIVLFNPDSKGLSNPAEVEALREKVYASLEAYCKHKYPEQPGRFAKLLLRLPALRSIGLKCLEHLFFFKLIGDTPIDTFLMEMLEAPHQMT
notes: 35S-methionine-labeled, in vitro translated; also called RXRa; RXRA

- binding result [6]: binds
- binding result [7]: binds
B2: ER LBD 282-595 (column label of Table 4) (receptor, not shown: large carriers)
chain: SAGDMRAANLWPSPLMIKRSKKNSLALSLTADQMVSALLDAEPPILYSEYDPTRPFSEASMMGLLTNLADRELVHMINWAKRVPGFVDLTLHDQVHLLECAWLEILMIGLVWRSMEHPVKLLFAPNLLLDRNQGKCVEGMVEIFDMLLATSSRFRMMNLQGEEFVCLKSIILLNSGVYTFLSSTLKSLEEKDHIHRVLDKITDTLIHLMAKAGLTLQQQHQRLAQLLLILSHIRHMSNKGMEHLYSMKCKNVVPLYDLLLEMLDAHRLHAPTSRGGASVEETDQSHLATAGSTSSHSLQKYYITGEAEGFPATV
